Results on 46 molecules are retold here after EP4613859A1, “TLR SIGNALING INHIBITORY PEPTIDE AND COMPOSITION INCLUDING SAME FOR PREVENTION OR TREATMENT OF INFLAMMATORY DISEASES” (Korea Institute of Science and Technology, priority 2022, dated 2025).

Assay [1] concerns the target human MAL (human) (UniProt P58753). The assay can be described thus: P3 phage display panning on plate-immobilised MAL, after round 4, NGS.
Assay [2] addresses human MyD88 (human) (UniProt Q99836). The assay can be described thus: P3 phage display panning on plate-immobilised MyD88, after round 4, NGS.
In assay [3] the target is human MAL (human) (UniProt P58753). The assay can be described thus: P8 phage display panning on plate-immobilised MAL, after round 4, NGS.
In assay [4] the target is human MyD88 (human) (UniProt Q99836). The assay can be described thus: P8 phage display panning on plate-immobilised MyD88, after round 4, NGS.

UniProt Q99836, sequence (Q99836 155-296 limits assumed): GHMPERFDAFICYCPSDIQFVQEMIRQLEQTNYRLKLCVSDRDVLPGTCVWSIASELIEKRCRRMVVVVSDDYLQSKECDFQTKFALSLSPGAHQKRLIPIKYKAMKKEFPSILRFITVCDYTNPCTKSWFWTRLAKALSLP
UniProt P58753, sequence (P58753 79-221 limits assumed): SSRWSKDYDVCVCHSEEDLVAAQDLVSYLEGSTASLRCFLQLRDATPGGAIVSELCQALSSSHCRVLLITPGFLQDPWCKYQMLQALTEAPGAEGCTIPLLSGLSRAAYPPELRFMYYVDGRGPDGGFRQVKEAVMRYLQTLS

KNLFNELVSKNIRTFM: the results for the NGS count in the assay with human MAL (human) [1] and with human MyD88 (human) [2] were 3260 count and 8540 count, respectively. The Population was 1.22% with human MAL (human) [1] and 2.49% with human MyD88 (human) [2].

For the molecule YTALTNSGFHTFRDND, in the assay with human MyD88 (human) [2], the NGS count was 17600 count and the Population is 5.12%.

As to NELVHVWSSKANSLVG, in the assay with human MAL (human) [1], the NGS count was 1840 count and the Population turned out to be 0.69%. In addition, in the assay with human MyD88 (human) [2], the NGS count was found to be 8820 count and the Population was 2.57%.

For HFFWIQLKSILGETSF, in the assay with human MAL (human) [3], the NGS count was 3620 count and the Population was 1.12%.

In the assay with human MyD88 (human) [4], DYASSTWWLRELLQIA displayed an NGS count of 4110 count and a Population of 1.58%.

In the assay with human MAL (human) [1], KEVEGWRDALTKVASL registered an NGS count of 3760 count and a Population of 1.41%. For the same molecule, in the assay with human MyD88 (human) [2], the NGS count is 5190 count and the Population stood at 1.8%.

In the assay with human MAL (human) [1], YNFISHLYDALHRNRI registered an NGS count of 2680 count and a Population of 1.01%. Also, in the assay with human MyD88 (human) [2], the NGS count is 2890 count and the Population was 0.84%.

In the assay with human MyD88 (human) [4], DWVWEHFFPMEEKDQT came in with an NGS count of 1540 count and a Population of 0.59%.

In the assay with human MyD88 (human) [4], LEANDSLFWDRLLYSL returned an NGS count of 1460 count and a Population of 0.56%.

As to YAFTGHLHRYLVQRGV, the NGS count was 43800 count in the assay with human MAL (human) [1] and 13400 count with human MyD88 (human) [2]. The Population with human MAL (human) [1] came to 16.4%; in the assay with human MyD88 (human) [2] it was 3.91%.

On to LKVESWRQALEKAGKL, for which, in the assay with human MAL (human) [1], the NGS count was found to be 5180 count and the Population is 2.32%. Further, in the assay with human MyD88 (human) [2], the NGS count is 16800 count and the Population was 4.91%.

Consider DPQDLEWFYERLFSQM, for which, in the assay with human MyD88 (human) [4], the NGS count was found to be 4490 count and the Population stood at 1.73%.

In the assay with human MAL (human) [3], WFYERLVSLILRDTKV came in with an NGS count of 79000 count and a Population of 24.4%.

On to YLRADDSWFWEKLLYA, for which, in the assay with human MyD88 (human) [4], the NGS count is 4070 count and the Population is 1.57%.

For the molecule PEKDNGGENAFINNIV, in the assay with human MyD88 (human) [2], the NGS count was determined as 2500 count and the Population was 0.73%.

Consider NGHESEIIKEIVDTIV, for which, in the assay with human MyD88 (human) [2], the NGS count came out at 4230 count and the Population amounted to 1.23%.

In the assay with human MAL (human) [3], SEFIQKIILWMNPKIV displayed an NGS count of 4460 count and a Population of 1.38%.

PSEVRKQTGSLAKAFA: in the assay with human MyD88 (human) [2], the NGS count worked out at 2250 count and the Population came to 0.66%.

In the assay with human MAL (human) [3], YFLHFLLFSRPETEYI came in with an NGS count of 17200 count and a Population of 5.31%.

In the case of LKWGDPYFWSKLRYAM, in the assay with human MAL (human) [1], the NGS count came to 5130 count and the Population amounted to 1.93%. In the assay with human MyD88 (human) [2], this molecule registered an NGS count of 8310 count and a Population of 2.42%.

In the case of HLLKEFDKKLITAFKD, in the assay with human MyD88 (human) [2], the NGS count was determined as 2400 count and the Population worked out at 0.7%.

In the assay with human MyD88 (human) [2], SELRVVDDGSVSPLEM returned an NGS count of 4870 count and a Population of 1.42%.

Regarding LFFWESLKQLLRSDGR, in the assay with human MAL (human) [3], the NGS count is 22600 count and the Population turned out to be 5.97%.

In the assay with human MyD88 (human) [2], TSHLHHALRLNKIETF displayed an NGS count of 2080 count and a Population of 0.6%.

In the assay with human MyD88 (human) [2], YYLDPSHLRKQSGEFG yielded an NGS count of 2540 count and a Population of 0.74%.

In the assay with human MyD88 (human) [4], SPQEQDGFWVRLIEAL returned an NGS count of 1840 count and a Population of 0.71%.

In the assay with human MAL (human) [3], AFFWEQLRTVLGKPTM yielded an NGS count of 11800 count and a Population of 3.65%.

In the assay with human MyD88 (human) [4], VANILGYHWIDWEYFV had an NGS count of 2030 count and a Population of 0.78%.

In the assay with human MyD88 (human) [2], SENYATSPWALDELVL came in with an NGS count of 5490 count and a Population of 1.89%.

In the assay with human MyD88 (human) [4], GLSWGPYEWWMGLYDA registered an NGS count of 1960 count and a Population of 0.76%.

As for LVAHEISKKMKIFATI, the NGS count with human MAL (human) [1] was 1670 count; with human MyD88 (human) [2], 17500 count. Besides, the Population came to 0.63% in the assay with human MAL (human) [1] and 5.08% with human MyD88 (human) [2].

With ESILNQLRRSSQSIAN, the results for the NGS count in the assay with human MAL (human) [1] and with human MyD88 (human) [2] were 3680 count and 1980 count, respectively. Moreover, the Population in the assay with human MAL (human) [1] came out at 1.38%; with human MyD88 (human) [2], 0.58%.

In the assay with human MyD88 (human) [4], HWIDWEYFVGIEDHIK showed an NGS count of 3420 count and a Population of 1.32%.

In the assay with human MyD88 (human) [4], IDDDHLTYLVRLLLSR had an NGS count of 3060 count and a Population of 1.18%.

As to YASSSWALDELLRILY, in the assay with human MyD88 (human) [4], the NGS count worked out at 2330 count and the Population is 0.9%.

For the molecule SSFREGLWRLLELSKK, in the assay with human MAL (human) [1], the NGS count was 30000 count and the Population is 11.3%. In the assay with human MyD88 (human) [2], this molecule yielded an NGS count of 79500 count and a Population of 23.1%.

As to AVDKETDKIQTPLKNA, in the assay with human MyD88 (human) [2], the NGS count worked out at 4790 count and the Population worked out at 1.39%.

In the assay with human MAL (human) [1], DHHLDLPRGKAIKPEILG returned an NGS count of 2280 count and a Population of 0.86%. In the assay with human MyD88 (human) [2], this molecule returned an NGS count of 26700 count and a Population of 7.78%.

As for GFLYQAFAREGFKIFM, in the assay with human MAL (human) [1], the NGS count worked out at 1760 count and the Population came out at 0.66%. In the assay with human MyD88 (human) [2], this molecule returned an NGS count of 2580 count and a Population of 0.75%.

Regarding RKGDLISDELLIAIEE, in the assay with human MyD88 (human) [2], the NGS count worked out at 2450 count and the Population turned out to be 0.71%.

KLFWEKFKEFFLPSLSR: in the assay with human MAL (human) [3], the NGS count came out at 4890 count and the Population was 1.51%.

In the assay with human MyD88 (human) [2], FLSYRALEKRFGPIGQ returned an NGS count of 3290 count and a Population of 0.96%.

In the assay with human MAL (human) [3], TFLGHLYNALVQAGIH showed an NGS count of 24700 count and a Population of 7.64%.

In the assay with human MyD88 (human) [4], MFGGDTFHDFLDLISM gave an NGS count of 1490 count and a Population of 0.57%.

For the molecule EWIREQLRPALKERLP, in the assay with human MAL (human) [1], the NGS count was found to be 2350 count and the Population stood at 0.88%. In the assay with human MyD88 (human) [2], the NGS count is 16800 count and the Population came out at 4.9%.

In the assay with human MyD88 (human) [4], YAASPWWFDELVKIVG gave an NGS count of 3430 count and a Population of 1.32%.
